Assay results reported in patent US10969392B2, “Methods and systems for predicting response to immunotherapies for treatment of cancer” (Vanderbilt University, priority 2015, dated 2021).
Entries after “also recorded” stand apart in the source; their conditions may differ.

Key:
Format in all cases: cell-based, human
melanoma cell lines [1] = assay: IFNγ stimulation of melanoma cell lines, flow cytometry for HLA-DR and PD-L1; conditions: for HLA-DR surface expression: 100 ng/mL; for HLA-DR expression by flow cytometry: Example 5
Protocol: (§1) FIGS. 3A-F show characterization of MHC-II(+) melanoma cell lines. Melanoma cell lines were treated with IFNy for 24 h before collection and live-cell staining and flow cytometry analysis for (A) MHC-I (HLA-A/B/C), (B) MHC-II (HLA-DR), and (C) PD-L1. Bars represent mean ±S.E.M. for at least three experiments (D) Representative flow plots from (C). (E) Western blot analysis of melanoma cell lines after 24 or 48 h of IFNy stimulation. (F) Phosphorylation of STAT1 (top row) and STAT5 (bottom row) in melanoma cell lines at 15 min after IFNy stimulation. Histograms were coloured according to the arcsinh transformed ratio or MFI medians relative to the table minimum value.
FIGS. 4A-D show graphs illustrating mean expression levels of MHC-I, MHC-II, and PD-L1 at baseline and after IFNy stimulation. Melanoma cell lines were treated with 100 ng IFNy for 24 hr (shown as percentage positive in FIGS. 2A-C) prior to harvest and live-cell staining and flow cytometry analysis for (A) MHC-I/HLA-A/B/C, (B) MHC-II/HLA-DR, and (C) PD-L1. Bars represent mean fluorescence intensity ±SEM for 3 experiments. (D) Histograms of HLA-DR surface expression over an extended (24-72 hr) IFNy treatment, as assessed by flow cytometry.
Cell surface expression mirrored mRNA expression patterns; MHC-I (HLA-A/B/C) was expressed ubiquitously among all cell lines under both basal and stimulated conditions, while MHC-II (HLA-DR) was present only on the intermediate/Ib (SKMEL5 and SKMEL28) and high/Ia cell lines (WM115 and A375; FIGS. 3A-C and 4A-D). […] The high (Ia) WM115 cell line was essentially 100% positive for HLA-DR at both basal and stimulated conditions.
Standard Flow Cytometry. Flow cytometry was performed using the following antibodies: HLA-DR/PE-Cy7 (Biolegend, clone L243. 1:20). CD274/PD-L1/APC (Biolegend, clone 29E.2A3, 1:200) and HLA-A/B/C-Alexa Fluor488 (1:100, Biolegend, clone W6/32) mouse MHC-II (I-A/I-E 1:20 Biolegend, clone M5/114.15.2). DAPI was used as a viability dye. Samples were analyzed on an Aria III laser system (BD Biosciences)
Cell and tumor culture. SKMEL-28 and WM115 cell lines were obtained from Dr. Kimberly Dahlman (Vanderbilt University), CHL-1 and HMCB melanoma cell lines were obtained from the laboratory of William Pao (Vanderbilt University). Cell line nature was not directly authenticated, but protein marker expression was consistent with published HLA-DRA mRNA expression patterns (CCLE). Cell lines were confirmed mycoplasma-free and cultured in DMEM containing 10% FBS. Stimulation with recombinant human IFNγ (R&D Systems) was performed at 100 ng/mL. For PDX models and ex-vivo organotypic culture, tumors were freshly resected and sectioned using an Alto tissue matrix sectioner (Roboz Surgical, Gaithersburg, Md.).
Methods. MHC-I/II mRNA was profiled across 60 MEL cell lines. The transcriptional characteristics of MHC-II+ cell lines were analyzed by Gene Set Analysis. Cell surface expression of MHC-I and MHC-II was confirmed by flow cytometry (FC) in a subset of cell lines under basal and stimulated (IFNγ) conditions. In 26 tumor samples from αPD-1 treated MEL patients, immunohistochemistry (IHC) was performed for HLA-DR (MHC-II) or HLA-A (MHC-I), SOX10, CD4 and CD8. IHC results were correlated with response and progression-free survival (PFS).

melanoma cell lines [2] = assay: IFNγ stimulation of melanoma cell lines, Western blot and phospho-flow (STAT1, STAT5, CIITA)
Protocol: as §1
Immunoblotting Immunoblotting was performed as previously described^32 Briefly, cells were washed in cold phosphate-buffered saline, collected and lysed in 1×RIPA buffer (50 mM Tris (pH 7.4), 1% NP-40, 150 mM NaCl, 1 mM EDTA, 0.1% SDS, 0.25% sodium deoxycholate, 5 mM NaF, 5 mM Na3VO4, 10% glycerol, […] phenylmethyl-sulphonylfluoride and protease inhibitors) for 30 min on ice. Lysates were sonicated for 2-3 s to shear DNA and cleared by centrifugation at 13,200 r.p.m. for 15 min. Protein concentrations of the lysates were determined by BCA assay (Bio-Rad, Hercules, Calif.). Samples were separated by SDS-PAGE and transferred to nitrocellulose membrane. Membranes were blocked with 5% non-fat dry milk or 5% bovine serum albumin in tris-buffered saline with 0.1% Tween-20 for 1 h at room temperature and then incubated overnight at 4° C. with the appropriate antibody as indicated. Following incubation with appropriate horseradish peroxidase-conjugated secondary antibodies, proteins were visualized using an enhanced chemiluminescence detection system. […]
Phospho-flow cytometry. […] Samples were analyzed on a LSRII system (BD Biosciences). […]

[3] = tested on: PDX tumors from melanoma patients PT1 and PT2; assay: Ex vivo organotypic culture of PDX tumour slices with or without IFNγ, Western blot for HLA-DR; conditions: PT1 (anti-PD-1 non-responder) and PT2 (responder) PDX, 24-48 h
Source text: FIGS. 6A-D show Ex vivo culture of tumours derived from anti-PD-1-responding and non-responding patients identifies heterogeneity in interferon response. (A) Patient tumour blocks stained for HLA-DR (brown) and SOX10 (pink) at low (scale bar, 500 um) and high magnification (scale bar, […]); PT1: anti-PD-1 non-responder and PT2: anti-PD-1 responder. (B) Experimental schema. (C) Schema and images of PDX tissue sections (ex vivo organotypic culture). (D) Western blot analysis of tissue sections cultured in the presence or absence of IFNy for 24-48 h.
To test this hypothesis, patient-derived xenograft (PDX) models were utilized from the tumor resections of two melanoma patients who subsequently received anti-PD1 therapy; patient 1 (PT1; non-responder, 0% HLA-DR-positive, class II/III) and patient 2 (PT2; partial responder, heterogeneous 15% HLA-DR-positive, class Ib) (FIG. 6A). […] The resected tumors from PT1 and PT2 were serially transplanted to athymic nu/nu mice, which are highly deficient in functional T cells, ruling out a possible source of IFNγ (FIG. 6B). […] Thus, HLA-DR may be a marker of IFNγ activity in the microenvironment of some (but not all) tumors.
Cell and tumor culture. SKMEL-28 and WM115 cell lines were obtained from Dr. Kimberly Dahlman (Vanderbilt University), CHL-1 and HMCB melanoma cell lines were obtained from the laboratory of William Pao (Vanderbilt University). […]

B1: IFNγ: recombinant human IFNγ (R&D Systems) used at 100 ng/mL to stimulate melanoma cell lines and tumour slices (protein, UniProt P01579 24-161, looked up)
Interferon gamma: QDPYVKEAENLKKYFNAGHSDVADNGTLFLGILKNWKEESDRKIMQSQIVSFYFKLFKNFKDDQSIQKSVETIKEDMNVKFFNSNKKKRDDFEKLTNYSVTDLNVQRKAIHELIQVMAELSPAAKTGKRKRSQMLFRG
HLA-DR surface expression (melanoma cell lines [1]; CHL-1 or HMCB cells, up to 72 hrs): No significant increase
HLA-DR expression by flow cytometry (melanoma cell lines [1]; MHC-II+ (mRNA) cell lines): constitutive and inducible
HLA-DR expression by flow cytometry (melanoma cell lines [1]; MHC-II− cells): did not express or induce
HLA-DR surface expression (melanoma cell lines [1]; SKMEL28 (intermediate/Ib), 25% positive at baseline, 24 h): potently induced
PD-L1 expression (melanoma cell lines [1]; all cell lines tested, 24 h stimulation): significantly upregulated; also recorded: potently induced
CIITA expression (melanoma cell lines [2]; Western blot, 24 or 48 h stimulation): only induced in HLA-DR+Ia/Ib cells
STAT1 activation (melanoma cell lines [2]; all cell lines, Western blot 24 or 48 h, phospho-flow 15 min): robustly activated
STAT5 activation (melanoma cell lines [2]; phospho-flow, 15 min stimulation, 100 ng/mL): preferentially activated by IFNγ in MHC-II(−) cell lines
HLA-DR upregulation in cultured tissue slices [3]: only the PT2 PDX model (anti-PD-1 responder) upregulated HLA-DR
